Source: the DeepSol protein solubility set

Test: soluble on expression in E. coli; label from the status in PepcDB or PDB records

Sequence | soluble on expression in E. coli
MAHHHHHHSLSGPRVERLEVSAYTVPTDYPESDGTLQWDSTTMILVEAHGGGRKGLGYTYGDVSVGRFVESKLAGVAEGSDALSPPAVWARMQAAIRNAGRPGVGAMAVSAVDIALWDLKARLLGLPLADALPRFHAEVPVYGSGGFTSYPLRRLQEQLGGWAAAGIPRVKMKVGREPEKDPERVRAAREAIGESVELMVDANGAYTRKQALYWAGAFAREAGISYLEEPVSSEDREGLRLLRDRGPGGVAIAAGEYEWTLPQLHDLAGCVDILQADVTRCGGITGLLRVDGICRGHQIPFSAHCAPAVSAHACCAVESLLHLEYFHDHARVERLLFDGTLDPEGGSLRPDPDRPGLGLELKRSEAGKYAA | soluble
MAHLLQLHHVSKSYREKKAIDDLTITIPNGKIIGLLGPNGSGKTTLIKLINGLLQPNKGEIVIDGYRPCVETKKIISYLPDTTYLNENMRIKDMLEFFSDFYSDFDKSKATSLLRDLELDPEDRFKTLSKGNKEKVQLILVMSRKARLYVLDEPIGGVDPAARDYILKTIINSYCENASVIISTHLISDIEPILDEVIFLKQGRLFLSGNADDLRQEYQQSIDSLFRETYKV | not soluble
MAIETEDIKYEESFIKNTRGFKLFTCRWLPTNREPRALVFLCHGYGMECSITMNSTARRLVKAGFAVYGMDYEGHGKSDGLSAYISNFDRLVDDVSTHYTAICEREENKWKMRFMLGESMGGAVVLLLGRKNPDFWDGAILVAPMCKIAEEMKPSPFVISILTKLISIIPKWKIIPSQDIIEISYKEPEIRKQVRENPLCSKGRPRLKTAYELLRISNDLEKRLQEVSLPFLVLHGDDDKVTDKAVSQELYKVALSADKTLKLYPGMWHGLLTGETPENIEIVFADVISWLEKRSDYGNDRFESELKQRNDRLNFKK | soluble
MAIFHLDFKIVKRSEGKSSVAKAAYHARCKITDERTGDTYDYSRRDDLYGHFILAPANAPEHIVKDSTSLWNEVERVERQNNGQTARYFDVSIPTELNNDEKKKLVLEYCQKNFVDKGMIADIAFHDLDSDNPHAHVMLTLKTIGPEGFGKKERSWNDRKMSVLWRESWASMANSYLATAGSSERIDHRSLQAQHEEALEKAAVALDNEEKALWLAKAAETNRPPMKRIHSAKWRSKAAQEQRAAEQTVRDAAKLEAVEVYKTFSELDLEIVVDVRSFTISVLPKPEEIVIPDFSTREKHQSIVSPVTSRRPAVKSYRAPNKATKVGMRGEGTPVLVAPEPNKSTKLKTSSSKKTRAMNRAPMHSRKQVKPHQNGLFKRLTTYMVCLFKEKFIWSKKKPIPVDAEHDKRIADNYVFDEIQGIYVSRAEYERRARFNNGTYSPAPDEVRRFPHRTKEEQHKVDDEPDYDPSSTPVPIISRKHLSLKPLEHHHHHH | not soluble
MAINNSAQKFIARNRAPRVQIEYDVEIYGSEKKIELPFVMAVLADLAGKPREELPPVTDRKFLDIDIDNFNERMKAIAPRVAFAVPNTLTGEGQLMVDITLENMDDFSPAQIARKVDALNQLLEARTQLANLQTYMDGKAGAENLVNKLLQDPTLLKTLANAPKSAATQQDVSADNESAE | not soluble
MAINPFFTLVQRPVQSIEMAPPKPSAKGAKKAAKTVTKPKDGKKRRHARKESYSVYIYRVLKQVHPDTGVSSKAMSIMNSFVNDVFERIAAEASRLAHYNKRSTISSREIQTAVRLILPGELAKHAVSEGTKAVTKYTSSK | not soluble
MAIQVKASLRKNPQDKKAAGKYYAQVVLAPEMTQRQIIDQIADRCTVTGSDVKAVLDALMTVIKRNLANGSPIRLGDLGSFRPSVSGIGSENVDKFTASNVKKARVIYVPSAEIKEAVAMYAFSKVGATAEGGNTEKPGGGDIDNPGGGDEEAPDPTVLEHHHHHH | soluble
MAIRLPAEWEEQDGVLIAWPHPGSDWYPWLRLVEPVFAQIVREITRFETALVVAADGERTAALLEAVGARMERVAIVELPTNDTWARDFGPVTVERDGRPVLLDFGFNGWGLKFAADRDNLVTRRLRHLGIFGDIPAEMVGLVLEGGSIESDGRGTVLTTAECLLNPNRNPHLSRAEIEEALARYLGTERVLWLENGFLAGDDTDSHVDTLARLAPDDTIVYVRCDDATDEHYAALFMMEKELANLRTREGSPYRLIPLPWPRACFDHEGQRLPATYANFLVINGAVLVPVYDDPADEAALEAIGRAFPGREIVGIDCRPLIIQHGSLHCVTMQLPKGVLPCPNLEHHHHHH | soluble
MAIRLYKLAVALGVFIVSAPAFSHGHHSHGKPLTEVEQKAANGVFDDANVQNRTLSDWDGVWQSVYPLLQSGKLDPVFQKKADADKTKTFAEIKDYYHKGYATDIEMIGIEDGIVEFHRNNETTSCKYDYDGYKILTYKSGKKGVRYLFECKDPESKAPKYIQFSDHIIAPRKSSHFHIFMGNDSQQSLLNEMENWPTYYPYQLSSEEVVEEMMSH | soluble
MAITRESKNGEEFVGEVTFYEGVNMNVVVNFFTGLDHYEYAKLRFAHTAHTPPLIRASSTSASASASTSTSSSRPKKHYLEKNMEHLLKKLDILAFKQTIIESRSPTSDSIHHQDFVSNTDTAEYDDDDTKFF | not soluble
MAIVGQPNLRELFDDAPTPHIAHPPHTHRRDFYVATDGSYASDGAGLGVIIETRDGSRVLRRSVPDTAPDNNVAEYRALHLGLDTLAARTPPDASVGVLVDHDALAGDVNSAVLATQRRDYQPVRAFSAPRDARHHWRGIRARVTGFAEIRAAQVDSSRNPAHALANEPSQYAHVNDEPDRCLLPDATTSTEPQIPPPSRSDRPAGDLEHHHHHH | not soluble
MAKDIYKTFKRSVSGIVGGNNINGEGSSSPSTSAPQVKYRGGTGRTWIHPPDYLINGHVEYVARFLGCVETPKANGSDVAREAIHAIRFQRDLKRSEQTRETAKLQKVEIRISIDNVIIADIKTKAPMYTFPLGRISFCADDKDDKRMFSFIARAEGASGKPSCYAFTSEKLAEDITLTIGEAFDLAYKRFLDKNRTSLENQKQIYILKKKIVELETENQVLIERLAEALRANSKADYENTGPPIYPGLGPPALPLSPMPQGPPPNIPPSSIYSMPRANDLPPTEMAPTLPQISTSSNGASPSVSPASTSPSGPAPSIPPPRPPALAPPPPVAPRRNPVVSPKNSTAGLLDGLELGSAEPAKKAPSNIFDDSFDPRAGEKKSTAAEYNPFGADFLSGIQNGKEAPPSASAELLASEAIARLPKPESSSVPPKKTAAEYDAMINEVEKKLAAMSSGSFEFGQLQTGDLGGIEGESDYGTPSDRLNPKMMNLKQ | not soluble
MAKGIPVLEIFGPTIQGEGMVIGQKTMFVRTAGCDYSCSWCDSAFTWDGSAKKDIRWMTAEEIFAELKDIGGDAFSHVTISGGNPALLKQLDAFIELLKENNIRAALETQGTVYQDWFTLIDDLTISPKPPSSKMVTNFQKLDHILTSLQENDRQHAVSLKVVIFNDEDLEFAKTVHKRYPGIPFYLQVGNDDVHTTDDQSLIAHLLGKYEALVDKVAVDAELNLVRVLPQLHTLLWGNKRGV | not soluble
MAKKEEYVRKPDWLKIKLNTNETYTGLKKMMREKNLHTVCEEAKCPNIHECWAVRKTATFMILGDVCTRACRFCAVKTGLPNELDLQEPERVAESVEIMGLKHAVITAVARDDLKDGGAGVFAETVRAVRRRNPFCTIEVLPSDMMGNDDNLKTLMDARPNILNHNIETVRRLTPRVRARATYERSLEFLRRAKEMQPDIPTKSSLMIGLGETKDEIIETMDDLRANNVDIMTIGQYLQPTKKHLKVQKYYHPDEFAELKEIALSKGFSHCEAGPLVRSSYHADEQVNEAQVREEARKAAAKS | not soluble
MAKLITLGEILIEFNALSPGPLRHVSYFEKHVAGSEANYCVAFIKQGNECGIIAKVGDDEFGYNAIEWLRGQGVDVSHMKIDPSAPTGIFFIQRHYPVPLKSESIYYRKGSAGSKLSPEDVDEEYVKSADLVHSSGITLAISSTAKEAVYKAFEIASNRSFDTNIRLKLWSAEEAKREILKLLSKFHLKFLITDTDDSKIILGESDPDKAAKAFSDYAEIIVMKLGPKGAIVYYDGKKYYSSGYQVPVEDVTGAGDALGGTFLSLYYKGFEMEKALDYAIVASTLNVMIRGDQENLPTTKDIETFLREMKK | soluble
MAKNKKLFEYLSQHAETISSTWYETIEETDPNSIYASTDPVVIHNLKSQNLAFNYKINRIFIDDEDVYLPILKEWAFEVTQDQEHLKTPIHYIIREFVRVRDLYVSYVKEFVHLNQNTVKSEEAEDLYHALIKAFDLVIHIFIEEMYKNTSLQLQAQKDMITELSAPVIVLFHSVGLLPLIGDIDTVRAKLIMENTLHQCAKKKVTQLYIDLSGVAVIDTMVAHQLFSLIEALRLIGVSSTLSGIRPEIAQTAVQLGLSFEGISLRSTLASAIASDLKLKKV | not soluble
MAKTITKDSFFHSRLQQFVANSLFPAGAGDWYKNKGYGKKGEVDDEAPFRDFVEKQKTDKKSHYYKEFQGLDLSLKKVKTKLVSGESCQLEVMKCQPESNEPKKPGTGKHIVYFPGANTYYQACFRDISTACKETGATVHAFNFPGTGLSSGKVREANDLINAGISVVSSLIKQGVHPDDIILQGDCYGASIALEVKKQLEDQADIKVRAIMNNVFKSFKAAVCDMITQSPWLPNILKSIVKRLLEFTGWHVTPGKKYKHADPYQCHIQHLGDQTLESSTLSGKVSKYHHEIQTGQTKSQKRAPITDTCPEEYRKDRDELDRKHYVRVKESAKERLASKFGVDKFGRVNAHFADLCELEMLDGQSVYQGFVNDYIARSNAYIEKHPQKGIKEVQDDLRKLHYLQPADSIEITEDEAQDFNTVVDLITEEQQLRHDRFNDNTIGKSISM | not soluble
MAKVSLEKDKIKFLLVEGVHQKALESLRAAGYTNIEFHKGALDDEQLKESIRDAHFIGLRSRTHLTEDVINAAEKLVAIGAFAIGTNQVDLDAAAKRGIPVFNAPFSNTRSVAELVIGELLLLLRGVPEANAKAHRGVWNKLAAGSFEARGKKLGIIGYGHIGTQLGILAESLGMYVYFYDIENKLPLGNATQVQHLSDLLNMSDVVSLHVPENPSTKNMMGAKEISLMKPGSLLINASRGTVVDIPALADALASKHLAGAAIDVFPTEPATNSDPFTSPLAEFDNVLLTPHIGGSTQEAQENIGLEVAGKLIKYSDNGSTLSAVNFPEVSLPLHVGRRLMHIHENRPGVLTALNKIFAEQGVNIAAQYLQTSAQMGYVVIDIEADEDVAEKALQAMKAIPGTIRARLLY | soluble
MAKVVVLGAGVSGHTCASFLKKKLGKQHEVVVISPNSYYQWIPSNIWVGVGHMTIDDVRFKLKKVYDRWGIDYKQAKAVSIHPEGDANISKGYVTIEYTDEEHAGYTETVDYDYLVNATGPKLNFEATEGLGPDKNSLSVCTYSHAAHAWEELQKSIEKMKNGQKQRFLIGTGHAMATCQGAAFEYILNVAHEISRRGLSHMAELTWISNEYELGDFGMGGAFIKRGGYITPTKVFTESLLAEYGIKWIRRAGVYKVEPGVAHYETLDGEMLSQEFDFAMLIPSFSGVGLTAFDKSGNDITDKMFLPNKFMKVDADYTAKPFGEWGANDWPTIYQTPMYSNIYAAGIAFAPPHSISKPMTSVNGRQIFPTPPRTGMPSGVIGKIIALNISEQIKGNHKEHHHKASMARMGAACIVSAGFGSFDGLGASMTVFPIVPDWEKYPEWGRDMTYSVGEVGLAGHWLKFMLHYLFFHKAKGYPFWYLIPELEHHHHHH | not soluble
MAKYEILFKQLRLAILRGEYAPNDRLPSENAIAIKHGVSRITSKRALNELAAADLVYRVRGGGTFVKPHKSTTQRQILLVLPFPETTSFGDYPSGIQGTLAGTTWQLKLMANERFIQLNLDELASQYAGIIYYPQNLATELPILMRLYAQKMPLVVLDKQPAALAVPSVTSDNVAGGKIACEHLQSRGHHRIAFLPETPFWQTFTGTVSDRFLGYFNHLKLATSDAALPLRWAQALQACTTAVQLKAYIQAQRITAIIAENDVVALRALQRIQELTSNSDTSIALVGFDNLPAAARNNPALTTVVQDFAAIGAKAVEALLDQINNPEHLFDDQIVVGVKLMVRSSTNQY | not soluble
